Experimental data reported in the supplement of paper PMC12042874.
± gives the uncertainty stated by the source.

Assay: amyloid nucleation score (Sup35N fusion, yeast selection) (log enrichment); library NNK1; higher = more nucleation; inactive = no reads after selection
How it was run: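 Peptides of 20 random codons, each fused to Sup35N, were expressed in psi-negative yeast. Cells were induced with 100 μM copper sulfate for 24 hours and grown 7 days at 30°C on medium lacking adenine and uracil, and plasmid inserts before and after selection were Illumina-sequenced. Nucleation scores are DiMSum log enrichments of output over input reads, centred on the mode score of non-aggregating sequences, and sequences under 100 input reads were excluded.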

Substance	amyloid nucleation score
NPGNTN	0.17 ± 0.55
NPNMVSRPCRVGRRPFDVGL	-0.022 ± 0.45
NPRVNNYRVNGWKRGIRDRA	0.66 ± 0.35
NPSIPCPQAACNMWY	0.819 ± 0.36
NPVRMMRNRLVLGKNCAPRG	-0.024 ± 0.28
NPWLSNFSCK	0.244 ± 0.47
NQANQSQPCTDSFILRNGVV	inactive
NQTSLAILSRSSQGHGTKVY	0.623 ± 0.95
NRACRMMQWS	-0.441 ± 1.2
NRCRDCREVYIKFPTWAWSW	-0.253 ± 0.43
NRCYMVYKFTV	-0.01 ± 0.33
NRHRRVPFRISTALLPVKLQ	0.632 ± 0.5
NRIPHGSRRSRAISKVRDA	0.728 ± 0.97
NRSRWPIHGFLIANKSPLQF	0.486 ± 0.38
NRVHKADHVTYY	inactive
NSAVYSCL	inactive
NSCRCYFLLGELDLNAFNSV	1.74 ± 0.55
NSDLWIGVCAVLSGLMTIIG	0.509 ± 0.64
NSEISRGGVMGVCAVLLMSF	0.273 ± 0.97
NSFRWDLTLLLWARINVDSF	1.49 ± 0.7
NSGGVWSHYFVVVMRYL	0.083 ± 0.46
NSLKCVRSIVKRYSACHRV	0.387 ± 0.5
NSPGCKCRSKGLISINST	inactive
NSPKYLKLSCSTLLTALLGR	1.16 ± 0.28
NSRGT	-0.28 ± 0.34
NSRSLFFYDSYVAGWYN	0.542 ± 0.31

Substance	amyloid nucleation score
NSSLLDISLYDNLVQGSDWP	-0.249 ± 0.57
NSSVGVESHIFSIVDKMNTW	inactive
NSWSFGPSGTQFGLSLFYGL	-0.979 ± 2.7
NTGREVFIRIMCPL	-0.212 ± 0.73
NTLKNCCLYIAVRCNAP	-0.974 ± 1.2
NTTAWPVYFYLWFRKTGWPL	-0.371 ± 0.78
NTYDHMTYNRGFRSM	inactive
NVGRSAICVRSCRMSLVFDG	0.11 ± 0.35
NVLVGFI	-0.851 ± 0.56
NVNETT	-0.547 ± 1.6
NVSLRFGSYPGVNVGSAFMV	-0.109 ± 0.53
NVSSLQDFRVMFWIFECTTR	0.052 ± 0.44
NVTCSVISNGNLSEFDVFVI	0.122 ± 0.75
NVVSF	-0.466 ± 1.2
NVYDMFIKFGVGVASSVSAC	-1.48 ± 1.9
NWEWAFRCPLWCLWDYRSTM	0.751 ± 0.57
NWGWGGEFRRNMFRIVS	inactive
NWNFIRRSARVWSR	-1.7 ± 1.2
NWTIHVDNSGHVIRINTHYW	6.72 ± 0.074
NWVRFIHFYYNGTRLWAEFV	-0.915 ± 0.74
NYCGLGSMYL	1.1 ± 0.8
NYFNL	0.21 ± 0.46
NYIVKAFSVVCFTSDTSSFR	6.08 ± 0.096
NYLGLLSEAVSRGVQLGDAT	inactive
NYRIRAWGNNYGHQGATCLR	inactive
NYRISAYCDSHVRRLPEYMF	0.175 ± 0.59

Substance	amyloid nucleation score
NYRRQLSFLRLSGQDMLEGK	0.184 ± 0.53
NYSYSFIPRSKVNGYEYGGA	-0.387 ± 0.32
NYTNTMWSSFLDYVVD	0.272 ± 0.88
NYVYR	-0.742 ± 1.2
NYVYSSVVGLLIW	-0.077 ± 0.19
NYYCRDVI	0.392 ± 0.3
NYYLECWYSCMGNTETSSKG	0.212 ± 0.53
NYYLVCCCKREQRLCTVGIT	6.831 ± 0.064
PAFFCFWNNLSCVSTWSYLV	2.44 ± 0.088
PALLEIQWSSCGV	-0.02 ± 0.72
PALNILNHYLLCKDPLFVRV	0.348 ± 0.37
PAMSVGQRFYGEQHSCGLSA	-0.583 ± 0.43
PCFRTYDCAISNLAVASRCR	1.03 ± 0.37
PCSVVV	-0.246 ± 0.32
PCWLQMSCR	-0.148 ± 0.79
PCYWQPPRRVAVATLSAAAL	-0.312 ± 0.49
PDFIHFY	0.182 ± 0.38
PFFTIKWCNFSSFIGYEPLL	-0.161 ± 0.31
PFGDSAPKTIRIMAVLIFTV	-0.237 ± 1.9
PFTRVGLDMYLDDSVKKGWD	-0.528 ± 0.36
PFVGTIFVSGSGTSMENGIC	-0.601 ± 0.47
PGEVRW	-0.385 ± 1.9
PGKSLIIHMCFSMSKTTENG	2.52 ± 0.08
PGYSVPFSCGDQVPQQLPIR	-0.538 ± 2.1
PHMMELSVDTKGNVLKVGSH	0.055 ± 0.52
PHPVVLASLSIDWVPRCSES	-0.179 ± 1

Substance	amyloid nucleation score
PIHDLRKLIYVTPEFYWGFY	0.561 ± 0.48
PIIVDRCCFDYIRRVNVLYN	0.677 ± 0.48
PILKQNHWRDFGNCLAKRRE	-0.281 ± 0.82
PINGEGSVSTLNDMVLSRSI	1.26 ± 0.81
PIRVM	-0.495 ± 0.43
PISCFTDHMQMFMRSNGRGL	1.16 ± 0.29
PKFAHILTHGVSHMQWTVVK	0.06 ± 0.35
PKKLRMYLPMHLSTPKRRLV	0.565 ± 0.58
PKRPMWLIQET	-0.571 ± 0.61
PKVFIEKAAIYIFAL	0.029 ± 0.51
PLIITTMFGASVRESFHVVL	1.21 ± 0.4
PLSILRKMAGVVSGCTAPTS	0.663 ± 0.7
PLTNRNIKIHYDLLSDDKMV	0.602 ± 0.26
PLVVGRVCEGYRRWCWFGRR	-0.369 ± 0.38
PMLVQLLEASWVKPVLDCIY	inactive
PMMMKIVKHDIVFSLEFHLI	inactive
PMPSLECNGVHFIKGIRLTL	0.754 ± 0.99
PNCDAYWVNWFKLRCLSHLF	-0.489 ± 1.7
PNLPGSKDNLTDRF	0.488 ± 1.2
PNSERREAMVIMFRW	0.633 ± 0.35
PNTSEWTDWCRVLVEWGQGS	0.394 ± 0.18
PNTYGGIMECYV	-0.233 ± 0.42
PPRYLMRDLTHWSPYR	1.34 ± 0.7
PQKLQGQIGCR	-0.549 ± 0.47
PQLTRSGQ	-0.14 ± 0.28
PQRQFDLIVD	0.563 ± 0.81

Substance	amyloid nucleation score
PQSFWNARCPCPLNRLNGVW	-0.474 ± 0.34
PREVVAQKHCSLLQFDLLYS	-0.556 ± 0.48
PRFKTMVVTHFLSFNFYGWN	-0.505 ± 0.39
PRGVFYCLCYLVTCLAEFYE	-0.311 ± 0.36
PRHFVKVIEAPASLLIVYHG	-1.02 ± 1.8
PRIRSPEMDVMSPPNFLWGL	0.213 ± 0.48
PRKACTIGWLGSINLERGEE	-0.681 ± 0.74
PRLMLYCSLYDIESFIIGRC	inactive
PRTTMMAINQVLTGTLEASW	-1.01 ± 0.95
PSALFFSVTLKVHINLAISS	0.431 ± 0.53
PSFHICL	-0.489 ± 0.41
PSGVCSIVVFKCLRRVMSSL	0.353 ± 0.35
PSGWTFSRGLSCDNVSRLSS	1.05 ± 0.61
PSMEWWGL	0.158 ± 0.88
PSSYF	0.45 ± 0.47
PSTDLWWLGNTLSIGNRIVY	-0.879 ± 0.69
PSYLCYVIPPPCINLVPMYP	-0.177 ± 0.23
PTFAADSEGHS	0.085 ± 0.63
PTTFVENIAWRRGSTSCLCG	inactive
PVCGFRRWKCLPN	0.318 ± 0.66
PVFGGNGWLGYGWNWRSHLG	0.383 ± 0.49
PVMFVDSMSVWVLLVCYRR	0.19 ± 0.74
